The numbers were not newly measured in patent US8840883B2, “Metallo-protein and tocotrienol (MP-T3) compositions with non-protein-type metal chelator and uses thereof” (Naidu LP, priority 2007, dated 2014), which cites them from elsewhere.

This series has as its system macrophages incubated with acetylated low-density lipoproteins (LDL).

B1: bovine milk LF: bi-lobed glycoprotein of the transferrin family of iron-binding metallo-proteins, from bovine milk (protein, UniProt P24627 20-708, looked up)
Lactotransferrin: APRKNVRWCTISQPEWFKCRRWQWRMKKLGAPSITCVRRAFALECIRAIAEKKADAVTLDGGMVFEAGRDPYKLRPVAAEIYGTKESPQTHYYAVAVVKKGSNFQLDQLQGRKSCHTGLGRSAGWIIPMGILRPYLSWTESLEPLQGAVAKFFSASCVPCIDRQAYPNLCQLCKGEGENQCACSSREPYFGYSGAFKCLQDGAGDVAFVKETTVFENLPEKADRDQYELLCLNNSRAPVDAFKECHLAQVPSHAVVARSVDGKEDLIWKLLSKAQEKFGKNKSRSFQLFGSPPGQRDLLFKDSALGFLRIPSKVDSALYLGSRYLTTLKNLRETAEEVKARYTRVVWCAVGPEEQKKCQQWSQQSGQNVTCATASTTDDCIVLVLKGEADALNLDGGYIYTAGKCGLVPVLAENRKSSKHSSLDCVLRPTEGYLAVAVVKKANEGLTWNSLKDKKSCHTAVDRTAGWNIPMGLIVNQTGSCAFDEFFSQSCAPGADPKSRLCALCAGDDQGLDKCVPNSKEKYYGYTGAFRCLAEDVGDVAFVKNDTVWENTNGESTADWAKNLNREDFRLLCLDGTRKPVTEAQSCHLAVAPNHAVVSRSDRAAHVKQVLLHQQALFGKNGKNCPDKFCLFKSETKNLLFNDNTECLAKLGGRPTYEEYLGTEYVTAIANLKKCSTSPLLEACAFLTR
Take B1: the “decrease of accumulation of CE in macrophages” value is listed as “more than 80%”.
